Source: paper PMC5469797, “Discovery of a novel conformational equilibrium in urokinase-type plasminogen activator” (Scientific Reports, 2017)

Target: T1, full-length muPA inhibited at the active site with Glu-Gly-Arg-chloromethylketone (Mus musculus, UniProt P06869, irreversible active site binding ligand Glu-Gly-Arg-chloromethylketone (EGR-cmk) in the active site)
T1 construct: as m2; source: HEK293 6E suspension cells, purified by nickel-Sepharose chromatography; reacted with EGR-cmk
Assay: SPR; BiaCore T100, 22 °C, curves fitted to a 1:1 binding model; who was immobilised is not told (SI Methods)
Conditions: both partners purified

T1 sequence (P06869 21-433): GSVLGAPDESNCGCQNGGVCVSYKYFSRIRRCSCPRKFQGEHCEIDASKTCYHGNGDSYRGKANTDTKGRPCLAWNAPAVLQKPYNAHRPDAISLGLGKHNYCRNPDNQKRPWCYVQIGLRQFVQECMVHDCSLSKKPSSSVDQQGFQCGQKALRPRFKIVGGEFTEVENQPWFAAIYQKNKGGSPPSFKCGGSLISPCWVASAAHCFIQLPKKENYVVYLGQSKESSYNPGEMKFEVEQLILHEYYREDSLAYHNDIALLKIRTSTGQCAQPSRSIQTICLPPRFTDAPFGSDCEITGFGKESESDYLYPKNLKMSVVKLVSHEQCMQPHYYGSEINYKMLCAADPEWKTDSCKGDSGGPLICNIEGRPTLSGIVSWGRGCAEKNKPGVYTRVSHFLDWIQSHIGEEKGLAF

B1: anti-muPA allosteric nanobody Nb7 (VHH)
VHH: QVQLQESGGGLVQPGGSLRLSCAASGFTLGYYAIGWFRRAPGKEREGVSCISSSGGSTNYADSVKGRFTISRDNAKNTVDLQMNSLKPEDTAIYYCAAEWVPPGYGATVQALCNNAGYGMEYWGKGTQVTVSS
notes: from an immunised alpaca phage library; All residues of Nb7 were visible in the electron density of 5LHN; source: E. coli WK6 (su-), produced as described previously
fold change of KD against muPA without EGR-cmk: 1.5 fold
